The values that follow come from patent publication US20150133367A1 (University of Pennsylvania, published 2015).

Holding throughout (assay): fluorescence-based enzyme inhibition assay
Experiment [1] deals with T1, Calpain-1.
T1 chain 1: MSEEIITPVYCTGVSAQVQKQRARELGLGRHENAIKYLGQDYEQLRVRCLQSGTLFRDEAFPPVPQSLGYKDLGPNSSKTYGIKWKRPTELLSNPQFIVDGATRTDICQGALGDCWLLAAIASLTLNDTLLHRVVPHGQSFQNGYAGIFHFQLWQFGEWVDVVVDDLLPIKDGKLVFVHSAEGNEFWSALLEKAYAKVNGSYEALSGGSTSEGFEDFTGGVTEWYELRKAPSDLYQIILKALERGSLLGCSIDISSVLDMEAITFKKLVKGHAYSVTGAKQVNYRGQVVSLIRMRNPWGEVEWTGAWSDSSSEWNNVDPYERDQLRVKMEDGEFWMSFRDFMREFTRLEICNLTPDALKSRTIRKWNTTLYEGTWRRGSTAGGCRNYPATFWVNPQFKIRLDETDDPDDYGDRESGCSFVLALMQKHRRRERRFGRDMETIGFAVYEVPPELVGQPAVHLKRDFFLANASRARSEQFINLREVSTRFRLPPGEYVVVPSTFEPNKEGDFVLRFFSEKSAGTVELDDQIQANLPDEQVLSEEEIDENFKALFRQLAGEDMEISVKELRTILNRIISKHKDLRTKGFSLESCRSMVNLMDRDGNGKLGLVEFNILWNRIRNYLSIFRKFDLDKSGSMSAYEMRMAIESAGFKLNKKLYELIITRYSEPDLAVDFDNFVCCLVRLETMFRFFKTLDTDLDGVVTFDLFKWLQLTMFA
T1 chain 2: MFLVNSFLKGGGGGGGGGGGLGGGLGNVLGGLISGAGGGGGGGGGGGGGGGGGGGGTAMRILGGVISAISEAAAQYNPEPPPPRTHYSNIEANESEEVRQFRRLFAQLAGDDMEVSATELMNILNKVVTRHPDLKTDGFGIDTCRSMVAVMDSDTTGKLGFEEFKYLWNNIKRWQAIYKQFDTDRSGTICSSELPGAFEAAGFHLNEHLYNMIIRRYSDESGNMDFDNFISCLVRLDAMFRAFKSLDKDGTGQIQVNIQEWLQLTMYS

Experiment [2] concerns the target T2, Cathepsin K (UniProt P43235 115-329).
T2 sequence (looked up): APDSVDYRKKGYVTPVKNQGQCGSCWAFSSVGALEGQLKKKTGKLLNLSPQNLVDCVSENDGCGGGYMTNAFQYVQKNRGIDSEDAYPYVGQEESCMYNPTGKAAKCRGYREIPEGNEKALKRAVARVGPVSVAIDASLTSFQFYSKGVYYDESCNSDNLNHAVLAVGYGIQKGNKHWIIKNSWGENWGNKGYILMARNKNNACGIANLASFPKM

For experiment [3], the target named is T3, Cathepsin L (UniProt P07711 114-333).
T3 sequence (P07711 114-333 limits assumed): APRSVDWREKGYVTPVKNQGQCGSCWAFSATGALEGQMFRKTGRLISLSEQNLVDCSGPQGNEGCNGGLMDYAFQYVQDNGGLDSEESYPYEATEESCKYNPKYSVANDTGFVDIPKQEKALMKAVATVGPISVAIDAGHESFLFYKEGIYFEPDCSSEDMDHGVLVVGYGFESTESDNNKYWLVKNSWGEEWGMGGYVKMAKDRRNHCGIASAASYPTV
The target of experiment [4] is T4, Cathepsin S (UniProt P25774 115-331).
T4 sequence (P25774 115-331 limits assumed): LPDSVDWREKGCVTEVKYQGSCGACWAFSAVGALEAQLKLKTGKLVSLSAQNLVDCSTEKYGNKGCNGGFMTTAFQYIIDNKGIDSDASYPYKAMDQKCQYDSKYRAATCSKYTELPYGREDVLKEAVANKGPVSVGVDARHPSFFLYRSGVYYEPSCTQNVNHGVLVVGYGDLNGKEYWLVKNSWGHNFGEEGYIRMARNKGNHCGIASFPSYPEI
Experiment [5] addresses T4, Cathepsin S. This is another data set of the same source.
Experiment [6] concerns the target T3, Cathepsin L. This is another data set of the same source.
The target of experiment [7] is T1, Calpain-1.
Experiment [8] deals with T2, Cathepsin K. The source holds these as a separate data set.

Like-named read-outs stand apart in the source and are kept apart here. Positions of bridges follow the written chain, without caps; N, C: chain ends. Non-standard residues stand in square brackets, D forms with d. No end group written: not given here. alpha,alpha'‑meta‑xylylene = alpha,alpha'-meta-xylylene linker (from a,a'-dibromo-meta-xylene) bridging two cysteines via bis-thioether; βAla = NCCC(=O)O

In general, Ki refers to a dissociation constant, usually derived from enzyme kinetics or from competition with a known ligand. Consider QPPKYCELLC (linker 6-10 via alpha,alpha'‑meta‑xylylene) [QPPKYCELLC (SEQ ID NO:76)], for which, in experiment [1], the affinity, expressed as Ki, was 35 µM.
SCEVVCKMTGLKVPL (linker 2-6 via alpha,alpha'‑meta‑xylylene, 15-mer) [SCEVVCKMTGLKVPL (SEQ ID NO:56)]: the Ki in experiment [2] worked out at 22.7 µM.
For PPPKYCELLC (linker 6-10 via alpha,alpha'‑meta‑xylylene) [PPPKYCELLC (SEQ ID NO:73)], the Ki in experiment [1] turned out to be 45.3 µM.

B1: SCESVCKPWGP (SEQ ID NO:50) (peptide)
peptide: SCESVCKPWGP
modifications: linker 2-6 via alpha,alpha'‑meta‑xylylene
notes: also called compound (IIa); quadruple mutant
In the case of B1, the Ki in experiment [2] was 17.2 µM.
Consider IPPKYCELLC (linker 6-10 via alpha,alpha'‑meta‑xylylene) [IPPKYCELLC (SEQ ID NO:65)], for which the results for the Ki in experiment [1], in experiment [3] and in experiment [4] were 10.2 µM, 39.9 µM and 50.2 µM, respectively.
As for APPKYCELLC (linker 6-10 via alpha,alpha'‑meta‑xylylene) [APPKYCELLC (SEQ ID NO:72)], the Ki in experiment [1] was 65.6 µM; in experiment [3], 12.5 µM; in experiment [4], 26.1 µM.
For IPPKYCEQLC (linker 6-10 via alpha,alpha'‑meta‑xylylene, also called compound (Ia)) [IPPKYCEQLC (SEQ ID NO:85)], in that order: 11 µM, 66.2 µM and 21.4 µM.
For LPPKYCELLC (linker 6-10 via alpha,alpha'‑meta‑xylylene) [LPPKYCELLC (SEQ ID NO:74)], in that order: 11 µM, 38.1 µM and 46.3 µM.
For IPPKACELLC (linker 6-10 via alpha,alpha'‑meta‑xylylene) [IPPKACELLC (SEQ ID NO:81)], the values for the Ki in experiment [3] and in experiment [4] were 8.12 µM and 16.8 µM, respectively.
Consider IPPRYCELLC (linker 6-10 via alpha,alpha'‑meta‑xylylene) [IPPRYCELLC (SEQ ID NO:80)], for which the Ki in experiment [1] worked out at 5.3 µM; in experiment [3], 37.9 µM; in experiment [4], 35.9 µM.
For IPPKYCALLC (linker 6-10 via alpha,alpha'‑meta‑xylylene) [IPPKYCALLC (SEQ ID NO:84)], in that order: 28.9 µM, 12.5 µM and 15.6 µM.
As to IPPRWCELLC (linker 6-10 via alpha,alpha'‑meta‑xylylene) [IPPRWCELLC (SEQ ID NO:91)], in experiment [3], the Ki is 8.8 µM.
For IPPAYCELLC (linker 6-10 via alpha,alpha'‑meta‑xylylene) [IPPAYCELLC (SEQ ID NO:78)], the Ki in experiment [1] was 17.7 µM; in experiment [3] it was 24.6 µM; in experiment [4] it was 20.7 µM.
For IPPKYCEALC (linker 6-10 via alpha,alpha'‑meta‑xylylene) [IPPKYCEALC (SEQ ID NO:86)], in that order: 30.9 µM, 21.4 µM and 13.9 µM.
As for SCEEVCKPGGP (linker 2-6 via alpha,alpha'‑meta‑xylylene) [SCEEVCKPGGP (SEQ ID NO:47)], the Ki in experiment [2] was greater than 100 µM.
FFEFFCSLMCS (linker 6-10 via alpha,alpha'‑meta‑xylylene) [FFEFFCSLMCS (SEQ ID NO:27)]: the affinity in experiment [5], expressed as Ki, was 13.1 µM.

B2: I(pf5)PKYCELLC (SEQ ID NO:77) (peptide)
peptide: IXPKYCELLC
modifications: Cys6 and Cys10 (i,i+4) linked by alpha,alpha'-meta-xylylene; residue 2 pf5 = pentafluorophenylalanine
In experiment [1], B2 yielded a Ki of 5.09 µM.
EVTIPPKYCELLC (linker 9-13 via alpha,alpha'‑meta‑xylylene) [EVTIPPKYCELLC (SEQ ID NO:69)]: the Ki amounted to 5.3 µM in experiment [1], 69.6 µM in experiment [3] and 31.3 µM in experiment [4].
Turning to [βAla]AIPPKYCELLC (linker 8-12 via alpha,alpha'‑meta‑xylylene) [(b-Ala)AIPPKYCELLC (SEQ ID NO:70)], the Ki in experiment [1] was 10.7 µM.
On the same count and under the same terms, for IPPCYRECLA (linker 4-8 via alpha,alpha'‑meta‑xylylene) [IPPCYRECLA (SEQ ID NO:64)] the value was 95.6 µM; for IPPKYCELFC (linker 6-10 via alpha,alpha'‑meta‑xylylene) [IPPKYCELFC (SEQ ID NO:88)], 27.9 µM.
Molecule SCESVCKPWGPKVP (linker 2-6 via alpha,alpha'‑meta‑xylylene, 14-mer) [SCESVCKPWGPKVP (SEQ ID NO:55)] registered a Ki in experiment [2] of 16.2 µM.
On to IPPKYRCLLAC (linker 7-11 via alpha,alpha'‑meta‑xylylene) [IPPKYRCLLAC (SEQ ID NO:66)], for which the Ki in experiment [1] was found to be 7.5 µM; in experiment [3] it was 5.1 µM.
In the case of LGKREVTIPPKYCELLC (linker 13-17 via alpha,alpha'‑meta‑xylylene, 17 amino acids) [LGKREVTIPPKYCELLC (SEQ ID NO:67)], the figures for the Ki in experiment [1] and in experiment [4] were 3.6 µM and 31.5 µM, respectively.
Turning to LFKREVTIPPKYCELLC (linker 13-17 via alpha,alpha'‑meta‑xylylene, 17 amino acids) [LFKREVTIPPKYCELLC (SEQ ID NO:68)], the Ki in experiment [1] was 1.3 µM; in experiment [3], 10.7 µM; in experiment [4] it was 41.5 µM.
DPPKYCELLC (linker 6-10 via alpha,alpha'‑meta‑xylylene) [DPPKYCELLC (SEQ ID NO:71)] yielded a Ki in experiment [1] of 27.6 µM.
As for TSEEVCSLMCS (linker 6-10 via alpha,alpha'‑meta‑xylylene) [TSEEVCSLMCS (SEQ ID NO:16)], the Ki in experiment [6] was found to be 16.7 µM; in experiment [5] it was 52.1 µM.
Take TWEWVCSLMCS (linker 6-10 via alpha,alpha'‑meta‑xylylene, double mutant) [TWEWVCSLMCS (SEQ ID NO:23)]: the Ki in experiment [7] is 88.4 µM; in experiment [6] it was 33.8 µM; in experiment [5], 14.3 µM; in experiment [8], 65.7 µM.
As for TSEWVCSLMCS (linker 6-10 via alpha,alpha'‑meta‑xylylene, single mutant) [TSEWVCSLMCS (SEQ ID NO:20)], the Ki came to 57.1 µM in experiment [6] and 33.1 µM in experiment [5].
For the molecule TSEEWCSLMCS (linker 6-10 via alpha,alpha'‑meta‑xylylene, single mutant) [TSEEWCSLMCS (SEQ ID NO:21)], the Ki was found to be 105 µM in experiment [6] and 80.4 µM in experiment [5].
Consider WSEEVCSLMCS (linker 6-10 via alpha,alpha'‑meta‑xylylene, single mutant) [WSEEVCSLMCS (SEQ ID NO:17)], for which the Ki came to 108 µM in experiment [7], 76 µM in experiment [6] and 51 µM in experiment [5].
On to TWEEVCSLMCS (linker 6-10 via alpha,alpha'‑meta‑xylylene, single mutant) [TWEEVCSLMCS (SEQ ID NO:18)], for which the Ki in experiment [6] worked out at 93.9 µM; in experiment [5], 29.7 µM; in experiment [8], 67.5 µM.
